These are literature values, as cited in patent US9233143B2, “Medicinal agent for preventing exacerbation of malignant tumor, comprising combination of natriuretic peptide receptor GC-A and GC-B agonists” (National Cerebral and Cardiovascular Center, priority 2011, dated 2016).

Bridge positions count the residues as written; N and C are the ends. Ends that are not written are not given here.

This data set addresses T1, natriuretic peptide receptor GC-B (Homo sapiens, UniProt P20594).
T1 sequence (P20594 23-1047): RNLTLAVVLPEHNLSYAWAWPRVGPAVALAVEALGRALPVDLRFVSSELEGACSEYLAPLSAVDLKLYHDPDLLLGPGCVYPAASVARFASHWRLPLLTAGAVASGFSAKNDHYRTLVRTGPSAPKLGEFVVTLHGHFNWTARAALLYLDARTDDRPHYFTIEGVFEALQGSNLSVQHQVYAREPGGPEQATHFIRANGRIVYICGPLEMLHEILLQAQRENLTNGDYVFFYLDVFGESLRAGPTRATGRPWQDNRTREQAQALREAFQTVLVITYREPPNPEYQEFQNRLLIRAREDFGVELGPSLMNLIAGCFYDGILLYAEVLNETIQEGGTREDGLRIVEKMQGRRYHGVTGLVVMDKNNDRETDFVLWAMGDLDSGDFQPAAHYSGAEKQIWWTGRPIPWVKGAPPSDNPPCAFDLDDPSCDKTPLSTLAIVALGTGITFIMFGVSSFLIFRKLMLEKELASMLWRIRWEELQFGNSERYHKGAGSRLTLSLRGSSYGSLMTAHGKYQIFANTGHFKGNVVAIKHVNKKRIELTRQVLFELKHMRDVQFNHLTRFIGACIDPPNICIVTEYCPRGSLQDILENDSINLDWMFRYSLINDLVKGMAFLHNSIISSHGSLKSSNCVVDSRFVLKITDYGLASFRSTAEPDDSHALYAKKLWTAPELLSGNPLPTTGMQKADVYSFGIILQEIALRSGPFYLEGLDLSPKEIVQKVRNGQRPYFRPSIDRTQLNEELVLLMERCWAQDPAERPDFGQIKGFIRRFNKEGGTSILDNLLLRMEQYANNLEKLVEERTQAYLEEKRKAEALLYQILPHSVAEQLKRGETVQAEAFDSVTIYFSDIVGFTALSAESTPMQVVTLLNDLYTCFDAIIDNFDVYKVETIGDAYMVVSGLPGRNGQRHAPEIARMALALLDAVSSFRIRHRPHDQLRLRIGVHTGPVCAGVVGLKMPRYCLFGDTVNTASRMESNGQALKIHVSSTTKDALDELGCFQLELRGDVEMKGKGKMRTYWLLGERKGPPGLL
The note with it: literature reports; cited from earlier work.

As to “hCNP6-22: a peptide consisting of amino acids from position 6 to position 22 of SEQ ID NO: 7 (only the ring structure) (CFGLKLDRIGSMSGLGC; disulfide 1-17 (inferred); listed as Homo sapiens)”, the GC-B agonist activity entry is listed as “comparable to that of hCNP-22”.
